# From patent US6469141B1, “D1-like dopamine receptor activity modifying protein” (Medical College of Georgia Research Institute Inc., priority 1998, dated 2002)
# T1: GSTD1 (C-terminal 81 residues of hD1 receptor) (Homo sapiens, UniProt P21728)
# T1 construct: C-terminal 81 amino acids of the hD1 receptor (residues 365-446); made in house; host or cells: S-Calcyon: BL21(DE3) E. coli
# T1 sequence (P21728 365-446): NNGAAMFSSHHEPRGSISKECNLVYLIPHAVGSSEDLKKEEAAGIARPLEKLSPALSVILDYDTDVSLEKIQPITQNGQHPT
# Tests used:
# [1] = target: T1, GSTD1 (C-terminal 81 residues of hD1 receptor); test: S-agarose pull-down assay with GSTD1 fusion protein; type: binding; details: immunoblot with D1 receptor antibodies
# Description: For pull-down assays, a 550 bp Nco I-Bgl II fragment from pACT-Calcyon was subcloned into pET30a (Novagen, Madison, Wis.) to produce the S-Calcyon fusion protein containing residues 93-217 of the predicted Calcyon protein as well as an N-terminal tag composed of the 15 residue S peptide of ribonuclease S (Richards, F. M., et al., The Enzymes. ed.: Boyer, P. D., Academic Press, N.Y., pp. 647-806 (1971)). The S-β-galactosidase fusion protein was composed of bacterial β-galactosidase protein tagged at its N-terminus with the S peptide. Fusion proteins were induced in BL2I(DE3) E. coli with IPTG, and coupled to S-agarose resin (Novagen, Madison, Wis.) by incubating soluble fractions of bacterial lysates with resin for 1 h at RT Following incubation, unbound proteins were eliminated by washing the resin three times in 50 volumes of 25 mM HEPES (pH 7.4), 50 mM NaCl. Interaction assays were performed with GSTD1 purified as described (Bergson, C., et al., J. Neurosci. 15:7821-36 (1995)) or solubilized lysates of D1 HEK293 cells in 25 mM HEPES (pH 7.4), 50 mM NaCl, 10% glycerol, 1% bovine serum albumin containing 0.5% NP-40. Peptidel 421-435 ([…]) (SEQ ID No. 3) and Peptide2 ([…]) (SEQ ID No. 4) were synthesized using an Applied Biosystems 430A Peptide Synthesizer using the FastMoc procedures and reagents supplied by Perkin-Elmer, Applied Biosystems division. […]
# [2] = target: T2, full-length D1 DA receptors (Homo sapiens, UniProt P21728); test: S-agarose pull-down assay with D1 HEK293 cell lysates; type: binding; details: detergent solubilized D1 HEK293 lysates
# T2 construct: expressed in transfected cells; host or cells: D1 HEK293 cell lysate (receptor); BL21(DE3) E. coli (S-Calcyon)
# Description: For pull-down assays, a 550 bp Nco I-Bgl II fragment from pACT-Calcyon was subcloned into pET30a (Novagen, Madison, Wis.) to produce the S-Calcyon fusion protein containing residues 93-217 of the predicted Calcyon protein as well as an N-terminal tag composed of the 15 residue S peptide of ribonuclease S (Richards, F. M., et al., The Enzymes. ed.: Boyer, P. D., Academic Press, N.Y., pp. 647-806 (1971)). The S-β-galactosidase fusion protein was composed of bacterial β-galactosidase protein tagged at its N-terminus with the S peptide. Fusion proteins were induced in BL2I(DE3) E. coli with IPTG, and coupled to S-agarose resin (Novagen, Madison, Wis.) by incubating soluble fractions of bacterial lysates with resin for 1 h at RT Following incubation, unbound proteins were eliminated by washing the resin three times in 50 volumes of 25 mM HEPES (pH 7.4), 50 mM NaCl. […]
# A human embryonic kidney (HEK) 293 cell line, designated D1 HEK293, that stably expresses hD1 receptors was used to test the ability of S-Calcyon to interact with full-length D1 DA receptors. […] Proteins retained by the S-tagged target polypeptides were analyzed by immunoblotting with D1 receptor antibodies as described above. […]
# [3] = binding of 3H-labeled phospholipid vesicles to resin-bound S-Calcyon; details: 25 μl S-agarose resin, one hour, room temperature
# Description: FIG. 4 is a graph showing that calcyon's cytoplasmic domain binds PIP2. S-Calcyon bound to 25 μl of S-agarose resin, or 25 μl of S-agarose resin only was incubated for one hour at room temperature with phospholipid vesicles containing phosphotidylcholine (PC), phosphotidylethanolamine (PE), or PC, PE, and PIP2. Both types of vesicles were radioactively labeled with equivalent amounts of ^3H-phosphatidylcholine. Following incubation, resins were washed three times with ten volumes of buffer (20 mM hepes, pH 7.4), and amounts of bound phospholipid determined by liquid scintillation counting. Results are reported as percent of input radiolabel precipitated. Bars represent average value obtained in three independent assays with standard error of the mean.
# Tests were conducted to determine whether Calcyon can bind PIP2 using the S-Calcyon fusion protein. S-Calcyon contains the predicted cytoplasmic domain of Calcyon (residues 93-217) preceded by an ‘S’ tag (for coupling to S-agarose resin). […] Following incubation, resin was washed three times with ten volumes of buffer (20 mM Hepes, pH 7.4), and amounts of bound phospholipid were determined by liquid scintillation counting. […] Results are reported as percent of input radiolabel precipitated, bars represent the standard error of the mean of each value determined in triplicate. […]
# T2 sequence (P21728 whole entry): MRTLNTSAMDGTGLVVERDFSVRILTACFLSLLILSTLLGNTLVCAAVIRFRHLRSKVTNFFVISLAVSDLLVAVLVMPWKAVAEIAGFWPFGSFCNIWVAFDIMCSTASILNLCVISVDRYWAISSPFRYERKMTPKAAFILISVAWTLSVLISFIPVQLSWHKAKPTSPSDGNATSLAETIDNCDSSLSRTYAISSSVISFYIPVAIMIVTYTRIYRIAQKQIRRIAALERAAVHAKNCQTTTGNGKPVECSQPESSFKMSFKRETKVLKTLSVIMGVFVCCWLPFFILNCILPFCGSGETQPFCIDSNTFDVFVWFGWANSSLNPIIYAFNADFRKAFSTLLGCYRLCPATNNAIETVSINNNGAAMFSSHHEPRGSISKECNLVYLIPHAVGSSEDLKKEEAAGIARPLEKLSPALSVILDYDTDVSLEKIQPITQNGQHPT
molecule,measurement,setting,value
S-Calcyon: fusion protein containing residues 93-217 of Calcyon with N-terminal 15 residue S peptide tag (protein) KETAAAKFERQHMDSMALLGCVLIMYKAIWYDQFTCPDGFLLRHKICTPLTLEMYYTEMDPERHRSILAAIGAYPLSRKHGTETPAAWGDGYRAAKEERKGPTQAGAAAAATEPPGKPSAKAEKEAARKAAGSAAPPPAQ,pull-down of GSTD1 by resin-immobilized S-tagged protein,[1],A D1 antibody reactive band of similar size was present
same,pull-down of full-length D1 receptor by resin-immobilized S-tagged protein,[2],Bands of similar size were also present
same,precipitation of PIP2 containing vesicles vs vesicles of PC and PE only,[3],more than five times more effectively
